From patent US11015206B2, “Compositions and methods comprising sequences having hydroxyphenylpyruvate dioxygenase (HPPD) activity” (PIONEER HI-BRED INTERNATIONAL, INC., priority 2014, dated 2021)
Where a chain is given by its changes, count along the chain named. Names may count otherwise. Blank lines part the entries; values can stand above or below the molecule they belong to.

Columns and labels:
Assay type in all cases: biochemical, Z. mays
[1] = system: 4-hydroxyphenylpyruvate dioxygenase (HPPD); experiment: OFF rate ratio: release of inhibitor from pre-formed enzyme-inhibitor complex; conditions: Table 5; tembotrione
Method in brief: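 Inhibitor release from pre-formed complex (enzyme 7.2 μM, inhibitor 8 μM, 1 h RT) tracked as accelerating HPPD activity at 320 nm over 12 min, coupled via 50 nM HGD with 100 μM HPP at pH 7. OFF rate ratio: steady-state velocity relative to uninhibited initial velocity.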

[2] = system: 4-hydroxyphenylpyruvate dioxygenase (HPPD); experiment: HPPD activity coupled assay with HGD; substrate saturation kinetic parameters (kcat, KM); conditions: Table 6; for kcat: single substitutions in SEQ ID NO:2
Method in brief: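 Coupled continuous assay: His-tagged HPPD (5 to 240 nM, E. coli-expressed, Ni-NTA-purified) with 50 nM P. aeruginosa HGD in 25 mM Hepes pH 7, 2 mM ascorbate, 10 μM FeSO4; maleylacetoacetate followed at 320 nm. KM and Vmax from Lineweaver-Burke fits over 3.33–100 μM HPP.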

[3] = system: 4-hydroxyphenylpyruvate dioxygenase (HPPD); experiment: Estimate of kcat from initial rate at saturating hydroxyphenylpyruvate without inhibitor (ON rate ratio assay); conditions: Table 5; single substitutions in Round 7 variant 9070 (SEQ ID NO:2); estimate from initial rate at saturating hydroxyphenylpyruvate without inhibitor
Method in brief: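 kcat was estimated from the initial reaction rate with known enzyme level (60 or 120 nM HPPD). Hydroxyphenylpyruvate was at a saturating 100 μM, with no inhibitor present.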

[4] = system: 4-hydroxyphenylpyruvate dioxygenase (HPPD); experiment: ON rate ratio: HPPD reaction rate with vs without inhibitor in the 70 to 90 second interval; conditions: Table 5; tembotrione
Method in brief: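 Indicator of inhibitor on-rate: reaction velocity in the 70 to 90 second window with 4 μM inhibitor divided by that without. Reactions contained 100 μM HPP and 60 or 120 nM HPPD; slower binding gives a larger ratio.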

[5] = system: 4-hydroxyphenylpyruvate dioxygenase (HPPD); experiment: Insensitivity parameter (ON × OFF) and trait fitness (ON × OFF × kcat/KM or × kcat); conditions: for ON × OFF × kcat, Value / ON × OFF × kcat, Fold vs wt / ON × OFF, fold vs wt / ON × OFF (parameters with tembotrione): Table 5, tembotrione; for ON × OFF × kcat, Fold vs wt / ON × OFF, fold vs wt: fold vs maize wild type HPPD; for ON × OFF (parameters with tembotrione): insensitivity parameter
Method in brief: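 Trait fitness combines catalysis and insensitivity as kcat/KM × ON rate ratio × OFF rate ratio. The insensitivity parameter is the product of ON and OFF rate ratios, used in place of KD because the ON rate ratio is inverse.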

[6] = DKN (diketonitrile form of isoxaflutole)
[7] = DKN (isoxaflutole diketonitrile)

OFF ratio (parameters with tembotrione) [1]: 0.13
ON ratio (parameters with tembotrione) [4]: 0.78
Insensitivity parameter, ON × OFF [5, 6]: 0.21
Insensitivity parameter, ON × OFF ([5]; Mesotrione, Table 6): 0.46
Insensitivity parameter, ON × OFF ([5]; Sulcotrione): 0.55
ON × OFF, fold vs wt [5]: 19.5
ON × OFF (parameters with tembotrione) [5]: 0.10
Insensitivity parameter, ON × OFF ([5]; Tembotrione): 0.15
Insensitivity parameter, ON × OFF ([5]; Topramezon): 0.22
B1: 434H: single substitution Q434H in SEQ ID NO:2 (protein)
chain: MGPTPTATAAGAAVAAASAAEQAAFRLVGHRNFVRFNPRSDRFQTLAFHHVELWCADAASAAGRFSFALGVPLAARSDLSTGNSAHASLLLRSGSLSLLFTAPYAHGADAATAALPSFSAAAARRFAADHGLAVRAVALRVADAEDAFRASVAAGARPAFGPVDLGRGFRLAEVELYGDVVLRYVSYPDGAAGEPFLPGFEGVASPGAADYGLSRFDHIVGNVPELAPAAAYMAGFTGFHEFAEFTTEDVGTTESGLNSMALANNSENVLLPLNEPVHGTKRRSQIQTFLDHHGGPGVQHIALASDDVLRTLREMRARSAMGGFEFLPPPLSDYYDGVRRCAGDVLTEAQINECQELGVMVDRDDQGVLLQIFTKPVGDRPTFFLEIIQRIGCMEKDEKGQEYQKGGCGGFGKGNFGQLFKSIEDYEKSLEAKHAAAAATAQGS
modifications: Zea mays variant form created by artificial means.
Km [2]: 2770 nM
kcat [2]: 84.5 min⁻¹
kcat [3]: 51.9 min⁻¹
ON × OFF × kcat/km fold vs Round 7, variant 9070 [5, 7]: 1.4
ON × OFF × kcat/km fold vs Round 7, variant 9070 ([5]; Sulco (sulcotrione)): 1.3
ON × OFF × kcat, Value [5]: 5.16
ON × OFF × kcat, Fold vs wt [5]: 4.82
ON × OFF × kcat/km fold vs Round 7, variant 9070 ([5]; Topra (topramezone)): 1.1
ON × OFF × kcat/km fold vs Round 7, variant 9070 ([5]; meso (mesotrione)): 1.3
ON × OFF × kcat/km fold vs Round 7, variant 9070 ([5]; tembo (tembotrione)): 1.1

OFF ratio (parameters with tembotrione) [1]: 0.27
ON ratio (parameters with tembotrione) [4]: 0.74
Insensitivity parameter, ON × OFF [5, 6]: 0.39
Insensitivity parameter, ON × OFF ([5]; Mesotrione, Table 6): 0.73
Insensitivity parameter, ON × OFF ([5]; Sulcotrione): 0.74
ON × OFF, fold vs wt [5]: 38.4
ON × OFF (parameters with tembotrione) [5]: 0.20
Insensitivity parameter, ON × OFF ([5]; Tembotrione): 0.33
Insensitivity parameter, ON × OFF ([5]; Topramezon): 0.39
B2: 417Q: single substitution G417Q in SEQ ID NO:2 (protein)
chain: B1 chain with G417Q, H434Q
modifications: Zea mays variant form created by artificial means.
Km [2]: 1560 nM
kcat [2]: 33.5 min⁻¹
kcat [3]: 20.6 min⁻¹
ON × OFF × kcat/km fold vs Round 7, variant 9070 [5, 7]: 1.0
ON × OFF × kcat/km fold vs Round 7, variant 9070 ([5]; Sulco (sulcotrione)): 1.2
ON × OFF × kcat, Value [5]: 4.04
ON × OFF × kcat, Fold vs wt [5]: 3.77
ON × OFF × kcat/km fold vs Round 7, variant 9070 ([5]; Topra (topramezone)): 1.4
ON × OFF × kcat/km fold vs Round 7, variant 9070 ([5]; meso (mesotrione)): 1.5
ON × OFF × kcat/km fold vs Round 7, variant 9070 ([5]; tembo (tembotrione)): 1.5

OFF ratio (parameters with tembotrione) [1]: 0.28
ON ratio (parameters with tembotrione) [4]: 0.79
Insensitivity parameter, ON × OFF [5, 6]: 0.30
Insensitivity parameter, ON × OFF ([5]; Mesotrione, Table 6): 0.44
Insensitivity parameter, ON × OFF ([5]; Sulcotrione): 0.60
ON × OFF, fold vs wt [5]: 42.5
ON × OFF (parameters with tembotrione) [5]: 0.22
Insensitivity parameter, ON × OFF ([5]; Tembotrione): 0.23
Insensitivity parameter, ON × OFF ([5]; Topramezon): 0.29
B3: 182M: single substitution L182M in SEQ ID NO:2 (protein)
chain: B1 chain with L182M, H434Q
modifications: Zea mays variant form created by artificial means.
Km [2]: 2880 nM
kcat [2]: 56.1 min⁻¹
kcat [3]: 26.0 min⁻¹
ON × OFF × kcat/km fold vs Round 7, variant 9070 [5, 7]: 0.9
ON × OFF × kcat/km fold vs Round 7, variant 9070 ([5]; Sulco (sulcotrione)): 0.9
ON × OFF × kcat, Value [5]: 5.63
ON × OFF × kcat, Fold vs wt [5]: 5.26
ON × OFF × kcat/km fold vs Round 7, variant 9070 ([5]; Topra (topramezone)): 0.9
ON × OFF × kcat/km fold vs Round 7, variant 9070 ([5]; meso (mesotrione)): 0.8
ON × OFF × kcat/km fold vs Round 7, variant 9070 ([5]; tembo (tembotrione)): 1.0

OFF ratio (parameters with tembotrione) [1]: 0.28
ON ratio (parameters with tembotrione) [4]: 0.82
Insensitivity parameter, ON × OFF [5, 6]: 0.41
Insensitivity parameter, ON × OFF ([5]; Mesotrione, Table 6): 0.67
Insensitivity parameter, ON × OFF ([5]; Sulcotrione): 0.77
ON × OFF, fold vs wt [5]: 45.2
ON × OFF (parameters with tembotrione) [5]: 0.23
Insensitivity parameter, ON × OFF ([5]; Tembotrione): 0.33
Insensitivity parameter, ON × OFF ([5]; Topramezon): 0.41
B4: 417S: single substitution G417S in SEQ ID NO:2 (protein)
chain: B1 chain with G417S, H434Q
modifications: Zea mays variant form created by artificial means.
Km [2]: 1410 nM
kcat [2]: 26.7 min⁻¹
kcat [3]: 18.5 min⁻¹
ON × OFF × kcat/km fold vs Round 7, variant 9070 [5, 7]: 0.9
ON × OFF × kcat/km fold vs Round 7, variant 9070 ([5]; Sulco (sulcotrione)): 1.1
ON × OFF × kcat, Value [5]: 4.26
ON × OFF × kcat, Fold vs wt [5]: 3.98
ON × OFF × kcat/km fold vs Round 7, variant 9070 ([5]; Topra (topramezone)): 1.2
ON × OFF × kcat/km fold vs Round 7, variant 9070 ([5]; meso (mesotrione)): 1.3
ON × OFF × kcat/km fold vs Round 7, variant 9070 ([5]; tembo (tembotrione)): 1.6

OFF ratio (parameters with tembotrione) [1]: 0.24
ON ratio (parameters with tembotrione) [4]: 0.75
Insensitivity parameter, ON × OFF [5, 6]: 0.44
Insensitivity parameter, ON × OFF ([5]; Mesotrione, Table 6): 0.78
Insensitivity parameter, ON × OFF ([5]; Sulcotrione): 0.74
ON × OFF, fold vs wt [5]: 34.9
ON × OFF (parameters with tembotrione) [5]: 0.18
Insensitivity parameter, ON × OFF ([5]; Tembotrione): 0.33
Insensitivity parameter, ON × OFF ([5]; Topramezon): 0.48
B5: 366E: single substitution Q366E in Round 7, variant 9070 (SEQ ID NO:2) (protein)
chain: B1 chain with Q366E, H434Q
modifications: Zea mays variant form created by artificial means.
Km [2]: 1610 nM
kcat [2]: 38.8 min⁻¹
kcat [3]: 20.1 min⁻¹
ON × OFF × kcat/km fold vs Round 7, variant 9070 [5, 7]: 1.7
ON × OFF × kcat/km fold vs Round 7, variant 9070 ([5]; Sulco (sulcotrione)): 1.4
ON × OFF × kcat, Value [5]: 3.58
ON × OFF × kcat, Fold vs wt [5]: 3.35
ON × OFF × kcat/km fold vs Round 7, variant 9070 ([5]; Topra (topramezone)): 1.9
ON × OFF × kcat/km fold vs Round 7, variant 9070 ([5]; meso (mesotrione)): 1.8
ON × OFF × kcat/km fold vs Round 7, variant 9070 ([5]; tembo (tembotrione)): 1.8

OFF ratio (parameters with tembotrione) [1]: 0.13
ON ratio (parameters with tembotrione) [4]: 0.77
Insensitivity parameter, ON × OFF [5, 6]: 0.25
Insensitivity parameter, ON × OFF ([5]; Mesotrione, Table 6): 0.40
Insensitivity parameter, ON × OFF ([5]; Sulcotrione): 0.51
ON × OFF, fold vs wt [5]: 20.1
ON × OFF (parameters with tembotrione) [5]: 0.10
Insensitivity parameter, ON × OFF ([5]; Tembotrione): 0.19
Insensitivity parameter, ON × OFF ([5]; Topramezon): 0.24
B6: 191G: single substitution A191G in SEQ ID NO:2 (protein)
chain: B1 chain with A191G, H434Q
modifications: Zea mays variant form created by artificial means.
Km [2]: 2460 nM
kcat [2]: 71.7 min⁻¹
kcat [3]: 42.6 min⁻¹
ON × OFF × kcat/km fold vs Round 7, variant 9070 [5, 7]: 1.1
ON × OFF × kcat/km fold vs Round 7, variant 9070 ([5]; Sulco (sulcotrione)): 1.1
ON × OFF × kcat, Value [5]: 4.36
ON × OFF × kcat, Fold vs wt [5]: 4.08
ON × OFF × kcat/km fold vs Round 7, variant 9070 ([5]; Topra (topramezone)): 1.1
ON × OFF × kcat/km fold vs Round 7, variant 9070 ([5]; meso (mesotrione)): 1.1
ON × OFF × kcat/km fold vs Round 7, variant 9070 ([5]; tembo (tembotrione)): 1.0

OFF ratio (parameters with tembotrione) [1]: 0.20
ON ratio (parameters with tembotrione) [4]: 0.78
Insensitivity parameter, ON × OFF [5, 6]: 0.27
Insensitivity parameter, ON × OFF ([5]; Mesotrione, Table 6): 0.53
Insensitivity parameter, ON × OFF ([5]; Sulcotrione): 0.59
ON × OFF, fold vs wt [5]: 30.4
ON × OFF (parameters with tembotrione) [5]: 0.16
Insensitivity parameter, ON × OFF ([5]; Tembotrione): 0.23
Insensitivity parameter, ON × OFF ([5]; Topramezon): 0.31
B7: 432R: single substitution A432R in SEQ ID NO:2 (protein)
chain: B1 chain with A432R, H434Q
modifications: Zea mays variant form created by artificial means.
Km [2]: 1970 nM
kcat [2]: 56.7 min⁻¹
kcat [3]: 30.6 min⁻¹
ON × OFF × kcat/km fold vs Round 7, variant 9070 [5, 7]: 2.1
ON × OFF × kcat/km fold vs Round 7, variant 9070 ([5]; Sulco (sulcotrione)): 1.3
ON × OFF × kcat, Value [5]: 4.75
ON × OFF × kcat, Fold vs wt [5]: 4.44
ON × OFF × kcat/km fold vs Round 7, variant 9070 ([5]; Topra (topramezone)): 1.4
ON × OFF × kcat/km fold vs Round 7, variant 9070 ([5]; meso (mesotrione)): 1.5
ON × OFF × kcat/km fold vs Round 7, variant 9070 ([5]; tembo (tembotrione)): 1.6
